Legend:
[1] = target: Bca UvrA + Eco UvrB (Bacillus caldotenax / Escherichia coli) (UniProt P0A8F8); test: EMSA; conditions: central (+)-trans-BPDE-N2-guanine adduct; 10 nM UvrA, 100 nM Eco UvrB, 1 mM ATP, 10 mM MgCl2, 37 C; all substrate bound at 250 nM Eco UvrB
[2] = test system: UvrA (Bca) (Bacillus caldotenax); test: EMSA; conditions: central (+)-trans-BPDE-N2-guanine adduct; ABC buffer, 10 mM MgCl2, 1 mM ATP, 37 C, 20 min; fitted as UvrA dimer
[3] = test system: UvrA (Eco) (Escherichia coli); test: EMSA; conditions: central (+)-trans-BPDE-N2-guanine adduct; CITED Zou et al. 1998; cited from earlier work
[4] = test system: Bca UvrA + Eco UvrB + Eco UvrC (Bacillus caldotenax / Escherichia coli); test: cleavage_in_vitro; conditions: central (+)-trans-BPDE-N2-guanine adduct; 10 nM UvrA, 100 nM UvrB, 5 nM UvrC, 37 C 20 min; 83% and 60% after UvrA preincubation at 65 C for 10 and 30 min; figure legend says cis adduct, text says trans
[5] = test system: Eco UvrA + Eco UvrB + Eco UvrC (Escherichia coli); test: cleavage_in_vitro; conditions: central (+)-trans-BPDE-N2-guanine adduct; 37 C 20 min; abolished by UvrA preincubation at 65 C for 10 min; figure legend says cis adduct, text says trans
[6] = test system: UvrA (Bca) (Bacillus caldotenax); conditions: ATPase stimulated about 10-fold by 5.6 nM dsDNA (control 4.42; 18.4 at 0.224 nM), 37 C
[7] = test system: UvrA (Eco) (Escherichia coli); conditions: ATPase inhibited 23% by 0.224 nM dsDNA (control 71.5), 37 C
[8] = test system: UvrA (Bca) (Bacillus caldotenax); conditions: UV damage, 200 J/m2; ATPase; 13.2 without DNA; 37 C
[9] = target: UvrA2 Δβh UvrB (Bca) UvrB deletion Gln97-Asp112 replaced by Gly (Bacillus caldotenax) (UniProt P56981); conditions: UV damage, 200 J/m2; ATPase; 19.0 without DNA
[10] = test system: UvrA2UvrB (Bca) (Bacillus caldotenax); conditions: UV damage, 200 J/m2; ATPase; 18.3 without DNA
[11] = target: T1, Bacillus caldotenax (Bca) UvrA protein
T1 chain: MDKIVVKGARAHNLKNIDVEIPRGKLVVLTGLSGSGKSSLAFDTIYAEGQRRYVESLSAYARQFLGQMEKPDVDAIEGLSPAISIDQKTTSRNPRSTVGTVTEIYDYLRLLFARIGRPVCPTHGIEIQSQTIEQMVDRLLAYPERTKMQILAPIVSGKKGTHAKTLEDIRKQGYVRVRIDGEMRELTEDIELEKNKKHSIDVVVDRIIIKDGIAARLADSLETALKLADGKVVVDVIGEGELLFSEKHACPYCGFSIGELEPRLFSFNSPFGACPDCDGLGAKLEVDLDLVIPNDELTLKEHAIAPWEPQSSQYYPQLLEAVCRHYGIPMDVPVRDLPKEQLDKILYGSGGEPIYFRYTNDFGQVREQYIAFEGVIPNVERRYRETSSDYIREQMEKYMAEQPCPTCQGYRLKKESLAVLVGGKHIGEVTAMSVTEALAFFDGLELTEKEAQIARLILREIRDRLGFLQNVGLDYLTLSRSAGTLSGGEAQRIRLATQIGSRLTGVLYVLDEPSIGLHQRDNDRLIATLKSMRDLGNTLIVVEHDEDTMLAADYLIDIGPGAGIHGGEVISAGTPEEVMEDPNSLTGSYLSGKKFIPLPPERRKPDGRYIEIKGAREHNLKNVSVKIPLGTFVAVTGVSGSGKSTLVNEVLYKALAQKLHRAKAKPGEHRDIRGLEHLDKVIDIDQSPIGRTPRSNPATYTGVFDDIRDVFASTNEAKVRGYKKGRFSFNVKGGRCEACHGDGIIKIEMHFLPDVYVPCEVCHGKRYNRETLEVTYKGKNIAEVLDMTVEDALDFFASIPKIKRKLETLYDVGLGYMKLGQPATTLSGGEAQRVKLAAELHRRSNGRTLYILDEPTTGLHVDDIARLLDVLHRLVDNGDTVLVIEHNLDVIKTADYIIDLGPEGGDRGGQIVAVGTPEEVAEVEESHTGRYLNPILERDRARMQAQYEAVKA

E. coli UvrB protein = target: T2, E. coli UvrB protein (Escherichia coli, UniProt A7ZJI8 1-673); test: gel mobility shift with BPDE-DNA substrate, 37° C.
T2 construct: also called Eco UvrB; UvrB (Eco)
T2 sequence: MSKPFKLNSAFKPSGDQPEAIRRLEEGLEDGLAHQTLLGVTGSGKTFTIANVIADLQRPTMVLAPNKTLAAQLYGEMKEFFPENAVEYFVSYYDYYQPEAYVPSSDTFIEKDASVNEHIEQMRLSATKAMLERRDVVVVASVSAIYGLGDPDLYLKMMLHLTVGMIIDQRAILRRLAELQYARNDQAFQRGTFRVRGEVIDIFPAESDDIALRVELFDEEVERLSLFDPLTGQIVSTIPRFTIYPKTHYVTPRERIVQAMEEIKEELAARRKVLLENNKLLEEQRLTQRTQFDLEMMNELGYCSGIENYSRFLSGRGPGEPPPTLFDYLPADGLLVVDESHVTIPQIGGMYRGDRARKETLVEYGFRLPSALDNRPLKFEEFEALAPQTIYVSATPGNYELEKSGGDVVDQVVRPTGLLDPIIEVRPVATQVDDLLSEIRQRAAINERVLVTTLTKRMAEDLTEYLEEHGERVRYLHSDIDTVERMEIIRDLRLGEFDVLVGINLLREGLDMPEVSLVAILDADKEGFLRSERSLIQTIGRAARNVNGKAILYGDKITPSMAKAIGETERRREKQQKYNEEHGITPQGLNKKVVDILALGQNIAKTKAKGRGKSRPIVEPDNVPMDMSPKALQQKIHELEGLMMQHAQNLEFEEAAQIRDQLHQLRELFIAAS

(+)-trans-BPDE-N2-dG 50-bp duplex
binding (% bound as UvrB-DNA) [1]: > 50
Kd [2]: 25 nM
Kd [3]: 7.5 nM
activity [4]: 89 % incised
activity [5]: 67 % incised

pGL-2 plasmid DNA (undamaged)
activity (uM ADP/min/uM UvrA) [6]: 45.6
activity (uM ADP/min/uM UvrA) [7]: 55.4

UV-irradiated pUC18 DNA
activity (mol ATP/mol protein/min) [8]: 17
activity (mol ATP/mol protein/min) [9]: 29
activity (mol ATP/mol protein/min) [10]: 22

B1: β-hairpin deletion mutant of B. caldotenax UvrB (Δβh UvrB) (protein)
chain: VEGRFQLVAPYEPQGDQPQAIAKLVDGLRRGVKHQTLLGATGTGKTFTISNVIAQVNKPTLVIAHNKTLAGQLYSELKEFFPHNAVEYFVSYYDYYGAKINDEIDKLRHSATSALFERRDVIIVASVSCIYGLGSPEEYRELVVSLRVGMEIERNALLRRLVDIQYDRNDIDFRRGTFRVRGDVVEIFPASRDEHCIRVEFFGDEIERIREVDALTGEVLGEREHVAIFPASHFVTREEKMRLAIQNIEQELEERLAELRAQGKLLEAQRLEQRTRYDLEMMREMGFCSGIENYSRHLALRPPGSTPYTLLDYFPDDFLIIVDESHVTLPQLRGMYNGDRARKQVLVDHGFRLPSALDNRPLTFEEFEQKINQIIYVSATPGPYELEHSPGVVEQIIRPTGLLDPTIDVRPTKGQIDDLIGEIRERVERNERTLVTTLTKKMAEDLTDYLKEAGIKVAYLHSEIKTLERIEIIRDLRLGKYDVLVGINLLREGLDIPEVSLVAILDADKEGFLRSERSLIQTIGRAARNANGHVIMYADTITKSMEIAIQETKRRRAIQEEYNRKHGIVPRTVKKEIRDVIRATYAAEETEMYEAKPAAAMTKQEREELIRTLEAEMKEAAKALDFERAAQLRDIIFELKAEG
ATPase activity (mol of ATP hydrolyzed/mol of protein/min) [11]: 19
ATPase activity (with UV-irradiated DNA) (mol of ATP hydrolyzed/mol of protein/min) [11]: 29

B2: Bacillus caldotenax (Bca) UvrB protein, wild type (protein)
chain: VEGRFQLVAPYEPQGDQPQAIAKLVDGLRRGVKHQTLLGATGTGKTFTISNVIAQVNKPTLVIAHNKTLAGQLYSELKEFFPHNAVEYFVSYYDYYQPEAYVPQTDTYIEKDAKINDEIDKLRHSATSALFERRDVIIVASVSCIYGLGSPEEYRELVVSLRVGMEIERNALLRRLVDIQYDRNDIDFRRGTFRVRGDVVEIFPASRDEHCIRVEFFGDEIERIREVDALTGEVLGEREHVAIFPASHFVTREEKMRLAIQNIEQELEERLAELRAQGKLLEAQRLEQRTRYDLEMMREMGFCSGIENYSRHLALRPPGSTPYTLLDYFPDDFLIIVDESHVTLPQLRGMYNGDRARKQVLVDHGFRLPSALDNRPLTFEEFEQKINQIIYVSATPGPYELEHSPGVVEQIIRPTGLLDPTIDVRPTKGQIDDLIGEIRERVERNERTLVTTLTKKMAEDLTDYLKEAGIKVAYLHSEIKTLERIEIIRDLRLGKYDVLVGINLLREGLDIPEVSLVAILDADKEGFLRSERSLIQTIGRAARNANGHVIMYADTITKSMEIAIQETKRRRAIQEEYNRKHGIVPRTVKKEIRDVIRATYAAEETEMYEAKPAAAMTKQEREELIRTLEAEMKEAAKALDFERAAQLRDIIFELKAEG
ATPase activity (mol of ATP hydrolyzed/mol of protein/min) [11]: 18.3
ATPase activity (with UV-irradiated DNA) (mol of ATP hydrolyzed/mol of protein/min) [11]: 22

B3: Bacillus caldotenax (Bca) UvrA protein (enzyme)
chain: T1 chain
notes: Full-length recombinant protein made in E. coli as a UvrA-intein-CBD fusion and released by DTT cleavage; also called B. caldotenax UvrA; UvrASD
binding result (E. coli UvrB protein): binds

— patent publication US20050002923A1 (published 2005)
